For one test, the target named is T1, Cry1Ab protoxin (Bacillus thuringiensis, UniProt P0A370 1-1155).
T1 construct: also called 130-kDa protoxin
Briefly: ELISA; plates coated with 0.5 ug protoxin or activated toxin in PBS; PxHsp90 in Hsp90 buffer (1 mM ATP, 1 mM Mg in PBS) added for 1 h at 37 C; detected with anti-polyhistidine-peroxidase antibody; one sample without ATP (binding significantly reduced). Particulars: both partners purified.

A further test concerns the target Cry1Ac protoxin (Bacillus thuringiensis (strain HD73), UniProt P05068 1-1178). The description is as above. The following applies: both partners purified.

B1: Plutella xylostella Hsp90 (natural protein)
chain: not shown
notes: Hsp90 of Plutella xylostella, gene Pxhsp90 (GenBank AB214972.1), amplified from genomic DNA with primers from the start codon (NdeI) to the stop codon (BamHI); Cloned NdeI-BamHI into pET28b with its own stop codon, so the His tag is probably N-terminal (surmised); detected in the ELISA with an anti-polyhistidine antibody; also called PxHsp90; source: E. coli BL21 (pET28b), purified (Ni-NTA from …)
For the molecule B1, the binding result with Cry1Ab protoxin and with Cry1Ac protoxin was “binds” in each case.

The values above are taken from article PMC6879724, “Insect Hsp90 Chaperone Assists Bacillus thuringiensis Cry Toxicity by Enhancing Protoxin Binding to the Receptor and by Protecting Protoxin from Gut Protease Degradation” (mBio, 2019).
